The results in this text go back to the supplement of paper PMC7877785.

± gives the uncertainty stated by the source.

This data set can be described thus: self-splicing fitness, log relative to wild type (ln ratio); higher = more splicing; Tetrahymena group I intron in knt gene, E. coli kanamycin selection, DiMSum; sequences stand for … in CUCUCU…GGAGGGAAAAGUUAUCAGGCAUGCACCUGGUAGCUAGUCUUUAAACCAAUAGAUUGCAUCGGUUUAAAAGGCAAGACCGUCAAAUUGCGGGAAAGGGGUCAACAGCCGUUCAGUACCAAGUCUCAGGGGAAACUUUGAGAUGGCCUUGCAAAGGGUAUGGUAAUAAGCUGACGGACAUGGUCCUAACCACGCAGCCAAGUCCUAAGUCAACAGAUCUUCUGUUGAUAUGGAUGCAGUUCACAGACUAAAUGUCGGUCGGGGAAGAUGUAUUCUUCUCAUAAGAUAUAGUCGGACCUCUCCUUAAUGGGAGCUAGCGGAUGAAGUGAUGCAACACUGGAGCCGCUGGGAACUAAUUUGUAUGCGAAAGUAUAUUGAUUAGUUUUGGAGUACUCGUGGUCG
In outline:
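Colonies from six replicate transformations of E. coli BL21(DE3) were pooled and amplicon-sequenced on an Illumina HiSeq 2500. The library placed an intron with all eight P1ex-region nucleotides randomised inside the knt kanamycin-resistance gene on pET-22b(+), and cells grew overnight at 37°C or 30°C on LB agar with or without 25 μg/mL kanamycin (plus 100 μg/mL carbenicillin, 50 μM IPTG, 0.2% rhamnose). Fitness is the DiMSum error-weighted combination of wild-type-normalised replicate fold changes, kanamycin versus none.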

On to ACUAAGCAAUAUUACGAGUG, for which the “self-splicing fitness (ln)” value was -1.42 ± 0.08 (30 °C) and -0.758 ± 0.11 (37 °C).
Regarding CCCGAGCAAUAUUACGGAUC, the “self-splicing fitness (ln)” value (30 °C) was -3.92 ± 0.46 and the “self-splicing fitness (ln)” value (37 °C) was -2.06 ± 0.27.
On to GCGGAGCAAUAUUACGGGGA, for which the “self-splicing fitness (ln)” value is, setting by setting: (30 °C) -2.69 ± 0.39; (37 °C) -3.38 ± 0.42.
With CCAAAGCAAUAUUACGCGAU, the “self-splicing fitness (ln)” value (30 °C) was -3.16 ± 0.21 and the “self-splicing fitness (ln)” value (37 °C) was -2.79 ± 0.28.
UCCCAGCAAUAUUACGCAGC: the “self-splicing fitness (ln)” value was -3.71 ± 0.29 (30 °C) and -3.19 ± 0.47 (37 °C).
The matching figures for UGUCAGCAAUAUUACGACCU: -0.114 ± 0.17 and 0.566 ± 0.17.
Take UAAAAGCAAUAUUACGCAUU: the “self-splicing fitness (ln)” value (30 °C) is -3.33 ± 0.19 and the “self-splicing fitness (ln)” value (37 °C) is -2.15 ± 0.19.
Take UGUUAGCAAUAUUACGGUGU: the “self-splicing fitness (ln)” value is -2.57 ± 0.17 (30 °C) and -1.92 ± 0.18 (37 °C).
With GGUUAGCAAUAUUACGCAUA, the “self-splicing fitness (ln)” value reads like this: (30 °C) -0.622 ± 0.12; (37 °C) -0.182 ± 0.14.
On to CAACAGCAAUAUUACGCGUC, for which the “self-splicing fitness (ln)” value was -3.55 ± 0.22 (30 °C) and -1.98 ± 0.13 (37 °C).
With UAUGAGCAAUAUUACGCGCA, the “self-splicing fitness (ln)” value by setting is: (30 °C) -1.68 ± 0.12; (37 °C) -0.965 ± 0.15.
Taken in the same sequence, the figures for GUACAGCAAUAUUACGACGC were -0.428 ± 0.092 and -0.206 ± 0.1.
Consider CCACAGCAAUAUUACGAUGA, for which the “self-splicing fitness (ln)” value by setting is: (30 °C) -1.9 ± 0.11; (37 °C) -1.77 ± 0.12.
Take UUAAAGCAAUAUUACGUGCC: the “self-splicing fitness (ln)” value is, setting by setting: (30 °C) -0.9 ± 0.11; (37 °C) -0.509 ± 0.16.
Taken in the same sequence, the figures for UGCGAGCAAUAUUACGUCAG were -2.69 ± 0.27 and -2.11 ± 0.43.
Turning to GCUAAGCAAUAUUACGUGGC, the “self-splicing fitness (ln)” value runs as follows: (30 °C) -2.87 ± 0.23; (37 °C) -2.46 ± 0.41.
As to UCUGAGCAAUAUUACGACAG, the “self-splicing fitness (ln)” value was -1.02 ± 0.12 (30 °C) and -1.04 ± 0.15 (37 °C).
For AUUGAGCAAUAUUACGCGCU, the “self-splicing fitness (ln)” value reads like this: (30 °C) -2.3 ± 0.29; (37 °C) -1.29 ± 0.41.
As to AGGAAGCAAUAUUACGUCAG, the “self-splicing fitness (ln)” value (30 °C) was -2.97 ± 0.25 and the “self-splicing fitness (ln)” value (37 °C) was -2.41 ± 0.33.
GGUUAGCAAUAUUACGAUAU: the “self-splicing fitness (ln)” value is -0.423 ± 0.1 (30 °C) and -0.137 ± 0.13 (37 °C).
Take UCUGAGCAAUAUUACGAGCG: the “self-splicing fitness (ln)” value is, setting by setting: (30 °C) -1.93 ± 0.15; (37 °C) -2.37 ± 0.39.
Consider GGGAAGCAAUAUUACGAUGU, for which the “self-splicing fitness (ln)” value was -1.02 ± 0.083 (30 °C) and -0.0643 ± 0.1 (37 °C).
Consider ACUGAGCAAUAUUACGUAAC, for which the “self-splicing fitness (ln)” value is -4.25 ± 0.25 (30 °C) and -3.36 ± 0.3 (37 °C).
On to CUCGAGCAAUAUUACGCAAC, for which the “self-splicing fitness (ln)” value by setting is: (30 °C) -3.47 ± 0.49; (37 °C) -1.71 ± 0.31.
As to UGGAAGCAAUAUUACGGCCC, the “self-splicing fitness (ln)” value by setting is: (30 °C) -0.223 ± 0.15; (37 °C) 0.256 ± 0.18.
Taken in the same sequence, the figures for CUUCAGCAAUAUUACGUCGC were -2.22 ± 0.36 and -2.3 ± 0.42.
Take GAAAAGCAAUAUUACGCCAA: the “self-splicing fitness (ln)” value by setting is: (30 °C) -2.24 ± 0.12; (37 °C) -1.36 ± 0.12.
The matching figures for GCGGAGCAAUAUUACGCGUA: -2.77 ± 0.29 and -1.53 ± 0.15.
As for UCCCAGCAAUAUUACGCAUC, the “self-splicing fitness (ln)” value (30 °C) was -4.39 ± 0.42 and the “self-splicing fitness (ln)” value (37 °C) was -1.85 ± 0.22.
As to UGUCAGCAAUAUUACGACUG, the “self-splicing fitness (ln)” value is -0.284 ± 0.1 (30 °C) and 0.525 ± 0.13 (37 °C).
Consider CAAAAGCAAUAUUACGAGUC, for which the “self-splicing fitness (ln)” value is, setting by setting: (30 °C) -4.06 ± 0.24; (37 °C) -2.65 ± 0.25.
Turning to UAGUAGCAAUAUUACGGAGA, the “self-splicing fitness (ln)” value (30 °C) was -3.56 ± 0.47 and the “self-splicing fitness (ln)” value (37 °C) was -3.35 ± 0.35.
In the case of CACUAGCAAUAUUACGGACG, the “self-splicing fitness (ln)” value runs as follows: (30 °C) 0.105 ± 0.064; (37 °C) 0.332 ± 0.08.
AGGGAGCAAUAUUACGUGGA: the “self-splicing fitness (ln)” value is -1.45 ± 0.14 (30 °C) and -2.81 ± 0.26 (37 °C).
With AUCUAGCAAUAUUACGUGUG, the “self-splicing fitness (ln)” value was -2.16 ± 0.1 (30 °C) and -1.49 ± 0.12 (37 °C).
In the case of GCUGAGCAAUAUUACGACAU, the “self-splicing fitness (ln)” value reads like this: (30 °C) -2.265 ± 0.018; (37 °C) -1.08 ± 0.035.
For the sequence CCAGAGCAAUAUUACGACAA, where the note is “37 °C”, the “self-splicing fitness (ln)” value was -2.03 ± 0.45.
